From paper PMC6165545

Target: growth hormone secretagogue receptor-type 1a tagged with enhanced green fluorescent protein (GHSR-1a-EGFP), stably expressed in HEK293A cells (UniProt Q92847)
UniProt Q92847, sequence (Q92847 whole entry): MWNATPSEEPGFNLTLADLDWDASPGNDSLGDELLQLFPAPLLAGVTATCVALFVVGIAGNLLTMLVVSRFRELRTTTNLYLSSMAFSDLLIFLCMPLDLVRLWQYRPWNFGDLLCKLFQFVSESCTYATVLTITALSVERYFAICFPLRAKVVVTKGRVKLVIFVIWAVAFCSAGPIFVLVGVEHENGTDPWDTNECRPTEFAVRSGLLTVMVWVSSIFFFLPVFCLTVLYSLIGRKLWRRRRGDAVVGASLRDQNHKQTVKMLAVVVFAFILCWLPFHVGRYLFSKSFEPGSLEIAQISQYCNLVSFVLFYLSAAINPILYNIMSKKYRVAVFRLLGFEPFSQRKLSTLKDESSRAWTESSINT

intracellular Ca2+ mobilisation in HEK293A cells stably expressing GHSR-1a-EGFP, Emax as percentage of the control (3.3% FBS) | intracellular Ca2+ mobilisation in HEK293A cells stably expressing GHSR-1a-EGFP, EC50 | Substance
132% |  | ghrelin (rat) (peptide)
149% | 270 µg/mL | casein-derived hydrolysate (CasHyd)
